Data taken from patent US20110097340A1 (SCHERING, published 2011).

T1: murine VEGF165 (murine, UniProt Q00731-2 27-190)
T1 construct: also called mVEGF165; rMu-VEGF165
T1 sequence (looked up): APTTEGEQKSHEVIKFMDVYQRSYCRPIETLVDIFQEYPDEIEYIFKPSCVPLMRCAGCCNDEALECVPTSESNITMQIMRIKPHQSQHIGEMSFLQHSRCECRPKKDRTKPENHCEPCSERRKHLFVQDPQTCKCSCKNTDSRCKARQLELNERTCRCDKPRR


Experiments:
human VEGF165 [1] = target: T2, human VEGF165 (human, UniProt P15692 207-395); test: cell-based or functional assay
Target sequence in this assay (P15692 other isoform, or with tags, fused parts or gaps limits assumed): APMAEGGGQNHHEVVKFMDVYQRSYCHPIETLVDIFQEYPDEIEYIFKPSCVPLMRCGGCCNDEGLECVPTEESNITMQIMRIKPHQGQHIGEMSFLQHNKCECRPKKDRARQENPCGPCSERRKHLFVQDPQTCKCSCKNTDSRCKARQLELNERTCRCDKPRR

human VEGF165 [2] = target: T2, human VEGF165; test: Biacore 2000, hVEGF165 amine-coupled on C1 chip, antibody injected, 1:1 fit
Method: (§1) The VEGF binding affinity of these IgGs was tested on a Biacore 2000® by injecting the antibodies over a very low density antigen surface. Human or murine VEGF₁₆₅ was immobilized via standard amine coupling methods to flow cells on a C1 (planar carboxy surface) chip. Approximately 85 RU of each antigen was immobilized and a reference flow cell was activated and blocked. Antibodies were injected over the chip surface for 400 seconds at two different concentrations, after which dissociation was monitored. Data was analyzed by Scrubber® using double referencing and fitting with a 1:1 interaction. Regenerations were performed with 90 mM HCl with 500 mM NaCl.
Target sequence in this assay (P15692 other isoform, or with tags, fused parts or gaps limits assumed): as above

human VEGF165 [3] = target: T2, human VEGF165; test: ELISA on hVEGF165; unstressed XPA.10.064.06
human VEGF165 [4] = target: T2, human VEGF165; test: ELISA on hVEGF165; unstressed XPA.10.064.06; remark: listed apart in the source
murine VEGF165 [5] = target: T1, murine VEGF165; test: Biacore 2000, mVEGF165 amine-coupled on C1 chip, antibody injected
Method: as §1

human VEGF165 [6] = target: T2, human VEGF165; test: ELISA on hVEGF165; XPA.10.064.06 after thermal stress without methionine
Method: (§2) For chemical stress, the antibodies were incubated overnight at room temperature with 0.1% tBHP in the presence or absence of 5 mM L-methionine. For thermal stress, the antibodies were incubated in polysorbate for four weeks at 40° C. in the presence or absence of 5 mM L-methionine. The ability of the antibodies to bind hVEGF₁₆₅ was analyzed by Biacore and ELISA.

human VEGF165 [7] = target: T2, human VEGF165; test: ELISA on hVEGF165; XPA.10.064.06 after chemical stress (tBHP) without methionine
Method: as §2

human VEGF165 [8] = target: T2, human VEGF165; test: ELISA on hVEGF165; XPA.10.064.06 after thermal stress in the presence of methionine
Method: as §2

human VEGF165 [9] = target: T2, human VEGF165; test: ELISA on hVEGF165; XPA.10.064.06 after chemical stress (tBHP) in the presence of methionine
Method: as §2

murine VEGF165 [10] = target: T1, murine VEGF165; test: sandwich ELISA, antibody coated
Method: Mutants were transiently expressed in CHO-K1 cells, and cell supernatants were collected for binding analysis by ELISA.
The plate was blocked with 30% ChemiBlock™ reagent (Millipore) in PBS for one hour at room temperature, and 30, 60, or 100 μl of CHO-K1 culture supernatant for each mutant, or 1 μg/ml of wild-type hVEGF₁₂₁, recombinant hVEGF₁₆₅, or recombinant mVEGF₁₆₅, was added to appropriate wells. After one hour of incubation, the plate was washed and incubated with a biotinylated goat polyclonal anti-VEGF antibody for one hour at room temperature. Detection was performed with HRP-conjugated streptavidin, followed by TMB chromogenic substrate (Calbiochem) using manufacturer protocol.

Row | HUVEC proliferation, geometric mean IC50 (human VEGF165 [1]) | Kd (human VEGF165 [2]) | koff (human VEGF165 [2]) | kon (human VEGF165 [2]) | also measured | Binder
1 | 174 pM | 91.7 pM | 1.8e-05 s⁻¹ | 196000 M⁻¹ s⁻¹ |  | XPA.10.064.03 IgG2 (antibody, V domains shown, IgG2) VH: EVQLVQSGAEVRKPGASVKVSCKASGYSFTGHYIHWVRQAPGQGLEWMGWINPYSGGTNFPREFQGRVTMTRDTSVNTVYMELTRLTSDDTSVYYCARDQMVHGGLDYWGQGTLVTVSS VL: SYVLTQPPSASGTPGQRVTISCSGSSSNIGINYVYWYQQLPGTAPKLLIYRNDQRPSGVPDRFSGSKSGTSASLAISGLRSEDEADYYCATWDDSLSGVVFGGGTKVTVL
2 |  | 197 pM | 2.94e-05 s⁻¹ | 150000 M⁻¹ s⁻¹ |  | XPA.10.064.04 IgG2 (antibody, V domains shown, IgG2) VH: EVQLVQSGAEVRKPGASVKVSCKASGYSFTGHYIHWVRQAPGQGLEWMGWINPYSGGTNFPREFQGRVTMTRDTSVNTVYMELTRLTSDDTSVYYCARDEMQNGGLDYWGQGTLVTVSS VL: SYVLTQPPSASGTPGQRVTISCSGSSSNIGINYVYWYQQLPGTAPKLLIYRNDQRPSGVPDRFSGSKSGTSASLAISGLRSEDEADYYCATWDDSLSGVVFGGGTKVTVL
3 | 173 pM | 121 pM | 2.07e-05 s⁻¹ | 178000 M⁻¹ s⁻¹ | EC50 (read off the curve) (human VEGF165 [3]): ~6 ng/mL; EC50 (read off the curve) (human VEGF165 [4]): ~6 ng/mL; Kd (murine VEGF165 [5]): 208000 pM | XPA.10.064.06 IgG2 (antibody, V domains shown, IgG2) VH: EVQLVQSGAEVRKPGASVKVSCKASGYSFTGHYIHWVRQAPGQGLEWMGWINPYSGGTNFPREFQGRVTMTRDTSVNTVYMELTRLTSDDTSVYYCARDEMTRGGLDYWGQGTLVTVSS VL: SYVLTQPPSASGTPGQRVTISCSGSSSNIGINYVYWYQQLPGTAPKLLIYRNDQRPSGVPDRFSGSKSGTSASLAISGLRSEDEADYYCATWDDSLSGVVFGGGTKVTVL
4 |  |  |  |  | EC50 (read off the curve) (human VEGF165 [6]): ~10 ng/mL; EC50 (read off the curve) (human VEGF165 [7]): ~50 ng/mL; EC50 (read off the curve) (human VEGF165 [8]): ~6 ng/mL; EC50 (read off the curve) (human VEGF165 [9]): ~20 ng/mL | XPA.10.064.06 after oxidation (chemical stress with tBHP or thermal stress) (antibody, V domains shown, partial methionine oxidation; after tBHP: Met-48 20%, Met-70 0%, Met-81 14%, Met-101 66%; degree after thermal stress not given, also called oxidized XPA.10.064.06) VH: EVQLVQSGAEVRKPGASVKVSCKASGYSFTGHYIHWVRQAPGQGLEWMGWINPYSGGTNFPREFQGRVTMTRDTSVNTVYMELTRLTSDDTSVYYCARDEMTRGGLDYWGQGTLVTVSS VL: SYVLTQPPSASGTPGQRVTISCSGSSSNIGINYVYWYQQLPGTAPKLLIYRNDQRPSGVPDRFSGSKSGTSASLAISGLRSEDEADYYCATWDDSLSGVVFGGGTKVTVL
5 |  |  |  |  | Raw data (ELISA signal) (murine VEGF165 [10]): 0.0843 | Bevacizumab (antibody, V domains shown) VH: EVQLVESGGGLVQPGGSLRLSCAASGYTFTNYGMNWVRQAPGKGLEWVGWINTYTGEPTYAADFKRRFTFSLDTSKSTAYLQMNSLRAEDTAVYYCAKYPHYYGSSHWYFDVWGQGTLVTVSS VL: DIQMTQSPSSLSASVGDRVTITCSASQDISNYLNWYQQKPGKAPKVLIYFTSSLHSGVPSRFSGSGSGTDFTLTISSLQPEDFATYYCQQYSTVPWTFGQGTKVEIK
